Legend:
[1] = target: BC1280 (CapP, CalY-assisting polymerization protein), full-length recombinant protein (Bacillus cereus ATCC14579) (UniProt Q81GC7); experiment: native gel or EMSA
native gel or EMSA = target: the molecule itself; experiment: native gel or EMSA

In the case of “BC1280 (CapP, CalY-assisting polymerization protein), full-length recombinant protein (from UniProt Q81GC7 1-279) (natural protein)”, the stoichiometry N [1] is reported as 15 subunits.

B1: N-domain39-190 of BC1280 (domain or fragment, Bacillus cereus ATCC14579, UniProt Q81GC7 39-190, looked up)
chain: AAFIHETKVEATLSTAIIFPKTVNTLKEQSEKHKQFIEREYGTMKGKLKATSIEEIKQAISVWQQGREKIVAEKEALQNVYTEIEAPYNQIQEELKVNKDESMQQVSIYVNEGFRSIKEKRDYIEKEISLKAIDEQIQALQQQLNVAIEAEG
In the case of B1, the “stoichiometry N” value (native gel or EMSA) is reported as roughly 15 subunits.
